Source: patent US12099068B2, “Biomarkers for graft-versus-host disease” (Incyte Corporation, priority 2018, dated 2024)

B1: PRDX3 (protein, UniProt P30048 62-256, looked up)
Thioredoxin-dependent …: APAVTQHAPYFKGTAVVNGEFKDLSLDDFKGKYLVLFFYPLDFTFVCPTEIVAFSDKANEFHDVNCEVVAVSVDSHFSHLAWINTPRKNGGLGHMNIALLSDLTKQISRDYGVLLEGSGLALRGLFIIDPNGVIKHLSVNDLPVGRSVEETLRLVKAFQYVETHGEVCPANWTPDSPTIKPSPAASKEYFQKVNQ
B2: VWC2 (protein, UniProt Q2TAL6 28-325, looked up)
Brorin: SPSIPLEKLAQAPEQPGQEKREHASRDGPGRVNELGRPARDEGGSGRDWKSKSGRGLAGREPWSKLKQAWVSQGGGAKAGDLQVRPRGDTPQAEALAAAAQDAIGPELAPTPEPPEEYVYPDYRGKGCVDESGFVYAIGEKFAPGPSACPCLCTEEGPLCAQPECPRLHPRCIHVDTSQCCPQCKERKNYCEFRGKTYQTLEEFVVSPCERCRCEANGEVLCTVSACPQTECVDPVYEPDQCCPICKNGPNCFAETAVIPAGREVKTDECTICHCTYEEGTWRIERQAMCTRHECRQM
B3: FCRL6 (protein, UniProt Q6DN72 20-434, looked up)
Fc receptor-like protein 6: LYLQAWPNPVFEGDALTLRCQGWKNTPLSQVKFYRDGKFLHFSKENQTLSMGAATVQSRGQYSCSGQVMYIPQTFTQTSETAMVQVQELFPPPVLSAIPSPEPREGSLVTLRCQTKLHPLRSALRLLFSFHKDGHTLQDRGPHPELCIPGAKEGDSGLYWCEVAPEGGQVQKQSPQLEVRVQAPVSRPVLTLHHGPADPAVGDMVQLLCEAQRGSPPILYSFYLDEKIVGNHSAPCGGTTSLLFPVKSEQDAGNYSCEAENSVSRERSEPKKLSLKGSQVLFTPASNWLVPWLPASLLGLMVIAAALLVYVRSWRKAGPLPSQIPPTAPGGEQCPLYANVHHQKGKDEGVVYSVVHRTSKRSEARSAEFTVGRKDSSIICAEVRCLQPSEVSSTEVNMRSRTLQEPLSDCEEVLC
B4: CPM (protein, UniProt P14384 18-423, looked up)
Carboxypeptidase M: LDFNYHRQEGMEAFLKTVAQNYSSVTHLHSIGKSVKGRNLWVLVVGRFPKEHRIGIPEFKYVANMHGDETVGRELLLHLIDYLVTSDGKDPEITNLINSTRIHIMPSMNPDGFEAVKKPDCYYSIGRENYNQYDLNRNFPDAFEYNNVSRQPETVAVMKWLKTETFVLSANLHGGALVASYPFDNGVQATGALYSRSLTPDDDVFQYLAHTYASRNPNMKKGDECKNKMNFPNGVTNGYSWYPLQGGMQDYNYIWAQCFEITLELSCCKYPREEKLPSFWNNNKASLIEYIKQVHLGVKGQVFDQNGNPLPNVIVEVQDRKHICPYRTNKYGEYYLLLLPGSYIINVTVPGHDPHITKVIIPEKSQNFSALKKDILLPFQGQLDSIPVSNPSCPMIPLYRNLPDHS
B5: GZMH (protein, UniProt P20718 21-246, looked up)
Granzyme H: IIGGHEAKPHSRPYMAFVQFLQEKSRKRCGGILVRKDFVLTAAHCQGSSINVTLGAHNIKEQERTQQFIPVKRPIPHPAYNPKNFSNDIMLLQLERKAKWTTAVRPLRLPSSKAQVKPGQLCSVAGWGYVSMSTLATTLQEVLLTVQKDCQCERLFHGNYSRATEICVGDPKKTQTGFKGDSGGPLVCKDVAQGILSYGNKKGTPPGVYIKVSHFLPWIKRTMKRL
B6: CEACAM8 (protein, UniProt P31997 35-320, looked up)
Cell adhesion molecule CEACAM8: QLTIEAVPSNAAEGKEVLLLVHNLPQDPRGYNWYKGETVDANRRIIGYVISNQQITPGPAYSNRETIYPNASLLMRNVTRNDTGSYTLQVIKLNLMSEEVTGQFSVHPETPKPSISSNNSNPVEDKDAVAFTCEPETQNTTYLWWVNGQSLPVSPRLQLSNGNRTLTLLSVTRNDVGPYECEIQNPASANFSDPVTLNVLYGPDAPTISPSDTYYHAGVNLNLSCHAASNPPSQYSWSVNGTFQQYTQKLFIPNITTKNSGSYACHTTNSATGRNRTTVRMITVSD
B7: MATN3 (protein, UniProt O15232 29-486, looked up)
Matrilin-3: DPVARPGFRRLETRGPGGSPGRRPSPAAPDGAPASGTSEPGRARGAGVCKSRPLDLVFIIDSSRSVRPLEFTKVKTFVSRIIDTLDIGPADTRVAVVNYASTVKIEFQLQAYTDKQSLKQAVGRITPLSTGTMSGLAIQTAMDEAFTVEAGAREPSSNIPKVAIIVTDGRPQDQVNEVAARAQASGIELYAVGVDRADMASLKMMASEPLEEHVFYVETYGVIEKLSSRFQETFCALDPCVLGTHQCQHVCISDGEGKHHCECSQGYTLNADKKTCSALDRCALNTHGCEHICVNDRSGSYHCECYEGYTLNEDRKTCSAQDKCALGTHGCQHICVNDRTGSHHCECYEGYTLNADKKTCSVRDKCALGSHGCQHICVSDGAASYHCDCYPGYTLNEDKKTCSATEEARRLVSTEDACGCEATLAFQDKVSSYLQRLNTKLDDILEKLKINEYGQIHR
B8: CLEC4G (protein, UniProt Q6UXB4 1-293, looked up)
C-type lectin domain family 4 …: MDTTRYSKWGGSSEEVPGGPWGRWVHWSRRPLFLALAVLVTTVLWAVILSILLSKASTERAALLDGHDLLRTNASKQTAALGALKEEVGDCHSCCSGTQAQLQTTRAELGEAQAKLMEQESALRELRERVTQGLAEAGRGREDVRTELFRALEAVRLQNNSCEPCPTSWLSFEGSCYFFSVPKTTWAAAQDHCADASAHLVIVGGLDEQGFLTRNTRGRGYWLGLRAVRHLGKVQGYQWVDGVSLSFSHWNQGEPNDAWGRENCVMMLHTGLWNDAPCDSEKDGWICEKRHNC
B9: SEMA7A (protein, UniProt O75326 45-648, looked up)
Semaphorin-7A: QGHLRSGPRIFAVWKGHVGQDRVDFGQTEPHTVLFHEPGSSSVWVGGRGKVYLFDFPEGKNASVRTVNIGSTKGSCLDKRDCENYITLLERRSEGLLACGTNARHPSCWNLVNGTVVPLGEMRGYAPFSPDENSLVLFEGDEVYSTIRKQEYNGKIPRFRRIRGESELYTSDTVMQNPQFIKATIVHQDQAYDDKIYYFFREDNPDKNPEAPLNVSRVAQLCRGDQGGESSLSVSKWNTFLKAMLVCSDAATNKNFNRLQDVFLLPDPSGQWRDTRVYGVFSNPWNYSAVCVYSLGDIDKVFRTSSLKGYHSSLPNPRPGKCLPDQQPIPTETFQVADRHPEVAQRVEPMGPLKTPLFHSKYHYQKVAVHRMQASHGETFHVLYLTTDRGTIHKVVEPGEQEHSFAFNIMEIQPFRRAAAIQTMSLDAERRKLYVSSQWEVSQVPLDLCEVYGGGCHGCLMSRDPYCGWDQGRCISIYSSERSVLQSINPAEPHKECPNPKPDKAPLQKVSLAPNSRYYLSCPMESRHATYSWRHKENVEQSCEPGHQSPNCILFIENLTAQQYGHYFCEAQEGSYFREAQHWQLLPEDGIMAEHLLGHACALA
B10: FASLG (protein, UniProt P48023 130-281, looked up)
Tumor necrosis factor ligand …: QIGHPSPPPEKKELRKVAHLTGKSNSRSMPLEWEDTYGIVLLSGVKYKKGGLVINETGLYFVYSKVYFRGQSCNNLPLSHKVYMRNSKYPQDLVMMEGKMMSYCTTGQMWARSSYLGAVFNLTSADHLYVNVSELSLVNFEESQTFFGLYKL
B11: DNER (protein, UniProt Q8NFT8 35-737, looked up)
Delta and Notch-like …: NPVPAAPLSAPGPCAAQPCRNGGVCTSRPEPDPQHPAPAGEPGYSCTCPAGISGANCQLVADPCASNPCHHGNCSSSSSSSSDGYLCICNEGYEGPNCEQALPSLPATGWTESMAPRQLQPVPATQEPDKILPRSQATVTLPTWQPKTGQKVVEMKWDQVEVIPDIACGNASSNSSAGGRLVSFEVPQNTSVKIRQDATASLILLWKVTATGFQQCSLIDGRSVTPLQASGGLVLLEEMLALGNNHFIGFVNDSVTKSIVALRLTLVVKVSTCVPGESHANDLECSGKGKCTTKPSEATFSCTCEEQYVGTFCEEYDACQRKPCQNNASCIDANEKQDGSNFTCVCLPGYTGELCQSKIDYCILDPCRNGATCISSLSGFTCQCPEGYFGSACEEKVDPCASSPCQNNGTCYVDGVHFTCNCSPGFTGPTCAQLIDFCALSPCAHGTCRSVGTSYKCLCDPGYHGLYCEEEYNECLSAPCLNAATCRDLVNGYECVCLAEYKGTHCELYKDPCANVSCLNGATCDSDGLNGTCICAPGFTGEECDIDINECDSNPCHHGGSCLDQPNGYNCHCPHGWVGANCEIHLQWKSGHMAESLTNMPRHSLYIIIGALCVAFILMLIILIVGICRISRIEYQGSSRPAYEEFYNCRSIDSEFSNAIASIRHARFGKKSRPAMYDVSPIAYEDYSPDDKPLVTLIKTKDL
B12: CNTNAP2 (protein, UniProt Q9UHC6 28-1331, looked up)
Contactin-associated …: APSTSQKCDEPLVSGLPHVAFSSSSSISGSYSPGYAKINKRGGAGGWSPSDSDHYQWLQVDFGNRKQISAIATQGRYSSSDWVTQYRMLYSDTGRNWKPYHQDGNIWAFPGNINSDGVVRHELQHPIIARYVRIVPLDWNGEGRIGLRIEVYGCSYWADVINFDGHVVLPYRFRNKKMKTLKDVIALNFKTSESEGVILHGEGQQGDYITLELKKAKLVLSLNLGSNQLGPIYGHTSVMTGSLLDDHHWHSVVIERQGRSINLTLDRSMQHFRTNGEFDYLDLDYEITFGGIPFSGKPSSSSRKNFKGCMESINYNGVNITDLARRKKLEPSNVGNLSFSCVEPYTVPVFFNATSYLEVPGRLNQDLFSVSFQFRTWNPNGLLVFSHFADNLGNVEIDLTESKVGVHINITQTKMSQIDISSGSGLNDGQWHEVRFLAKENFAILTIDGDEASAVRTNSPLQVKTGEKYFFGGFLNQMNNSSHSVLQPSFQGCMQLIQVDDQLVNLYEVAQRKPGSFANVSIDMCAIIDRCVPNHCEHGGKCSQTWDSFKCTCDETGYSGATCHNSIYEPSCEAYKHLGQTSNYYWIDPDGSGPLGPLKVYCNMTEDKVWTIVSHDLQMQTPVVGYNPEKYSVTQLVYSASMDQISAITDSAEYCEQYVSYFCKMSRLLNTPDGSPYTWWVGKANEKHYYWGGSGPGIQKCACGIERNCTDPKYYCNCDADYKQWRKDAGFLSYKDHLPVSQVVVGDTDRQGSEAKLSVGPLRCQGDRNYWNAASFPNPSSYLHFSTFQGETSADISFYFKTLTPWGVFLENMGKEDFIKLELKSATEVSFSFDVGNGPVEIVVRSPTPLNDDQWHRVTAERNVKQASLQVDRLPQQIRKAPTEGHTRLELYSQLFVGGAGGQQGFLGCIRSLRMNGVTLDLEERAKVTSGFISGCSGHCTSYGTNCENGGKCLERYHGYSCDCSNTAYDGTFCNKDVGAFFEEGMWLRYNFQAPATNARDSSSRVDNAPDQQNSHPDLAQEEIRFSFSTTKAPCILLYISSFTTDFLAVLVKPTGSLQIRYNLGGTREPYNIDVDHRNMANGQPHSVNITRHEKTIFLKLDHYPSVSYHLPSSSDTLFNSPKSLFLGKVIETGKIDQEIHKYNTPGFTGCLSRVQFNQIAPLKAALRQTNASAHVHIQGELVESNCGASPLTLSPMSSATDPWHLDHLDSASADFPYNPGQGQAIRNGVNRNSAIIGGVIAVVIFTILCTLVFLIRYMFRHKGTYHTNEAKGAESAESADAAIMNNDPNFTETIDESKKEWLI

System: plasma proteins
Assay: Plasma proteins modulated between baseline and day 28 in responders (CR, VGPR, PR; n = 19), Example 6 (Table 13)
Assay type: in vivo, human
Conditions: plasma protein (OLINK NPX); responders (CR, VGPR, PR; n = 19); itacitinib 200 mg or 300 mg QD with corticosteroids; day 28 vs baseline
How it was run: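 Plasma at baseline/screening and day 28 profiled for >1000 proteins by OLINK proximity extension assay, reported as NPX (log2). Steroid-naive and steroid-refractory patients pooled. Paired and unpaired t tests, ANOVA and Pearson correlation applied; significance at P<0.05.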

Molecule	Fold Change, Decreased Expression from Baseline to Day 28	Fold Change, Increased Expression from Baseline to Day 28
B1	−1.199	–
B2	–	1.3331
B3	−1.3556	–
B4	–	1.1479
B5	−1.494	–
B6	−1.6177	–
B7	−1.3384	–
B8	−1.1865	–
B9	−1.1335	–
B10	−1.3614	–
B11	–	1.2957
B12	−1.3091	–
